Laboratory results from patent publication US12559863B2, “Macrocyclic modulators of disease associated protein misfolding and aggregation” (RESQ BIOTECH, priority 2017, dated 2026).

Target: T1, Aβ42-GFP (Homo sapiens, UniProt P05067)
T1 construct: a chimeric fusion of the human Aβ(1-42) peptide (Aβ42) with GFP; expressed in transfected cells; host or cells: E. coli BL21(DE3)
Assay: High-throughput sequencing of pSICLOPPS vectors isolated after bacterial sorting for enhanced Aβ42-GFP fluorescence
Conditions: for Reads/Total TXXXR reads (%): relative to total TXXXR reads; for Reads/Total pentapeptide reads (%): relative to total pentapeptide reads; for Normalized read number (%): Table 3, cyclo-TXXR tetrapeptides
Excerpt: On the other hand, very few bioactive sequences resembling AβC5-34 should exist. […] The peptide-encoding vectors contained in these clones were isolated and the peptide-encoding region of approximately 5.6 million of these plasmids was sequenced using an Ion Torrent high-throughput sequencing platform. […] First, pentapeptides were the dominant peptide species within the sorted pool (FIG. 12D), in agreement with previous observations (FIG. 8G). Second, the most prevalent motif among the selected pentapeptide sequences were TXXXR pentapeptides (˜47% of the selected pentapeptide-encoding pSICLOPPS plasmids; ˜42% of the unique selected pentapeptide sequences) (Table 1), in accordance with previous observations (FIG. 8G). […] At position 2, Thr, Ala, and Val were preferred, while aromatic residues (Phe, Trp, Tyr) were completely excluded from the selected TXXXR peptide pool, in full agreement with our site-directed mutagenesis studies. At the highly variable position 3, the complete absence of the negatively charged amino acids Glu and Asp among the selected sequences was notable (FIG. 12E). […] It is noteworthy, that Lys and Gln residues were practically absent from all positions, while the β sheet-breaking amino acid Pro that is typically included in designed peptide-based inhibitors of amyloid aggregation appeared with strikingly low frequencies (FIG. 12E).
Electrocompetent E. coli BL21(DE3) cells (Novagen, USA) carrying either the expression vector pETSOD1(A4V)-GFP, which produces SOD1(A4V)-GFP under control of the strong bacteriophage T7 promoter, or pETAβ42-GFP, which produces Aβ42-GFP under control of the T7 promoter, were co-transformed with the combined pSICLOPPS-NuX1X2X3-X5 vector library. Approximately 10^8 transformants carrying both the vector library and either pETSOD1(A4V)-GFP or pETAβ42-GFP vectors were harvested, pooled together, and grown in Luria-Bertani (LB) liquid medium containing either 0.005% (pETSOD1(A4F)-GFP) or 0.002% (pETAβ42-GFP) L-arabinose—the inducer of cyclic peptide production—at 37° C. with shaking. When the optical density at 600 nm (OD600) of the bacterial culture was about 0.5, 0.01 (pETSOD1(A4F)-GFP) or 0.1 (pETAβ42-GFP) mM isopropyl-β-D-thiogalactoside (IPTG) was added to the medium to induce overexpression of the reporter. […] The isolated cells were re-grown and screened for additional rounds in an identical manner until the desired enrichment in high-fluorescence clones was achieved.
For the characterization of the initial libraries, a combined pSICLOPPS-NuX1X2X3-X5 vector library was prepared containing approximately equal amounts of each one of the tetra-, penta- and hexapeptide sub-libraries. These samples were digested with NcoI and BsrGI and the resulting ˜250 bp product that contained the variable peptide-encoding region was isolated. High-throughput sequencing analysis was performed using an Ion Torrent high-throughput sequencing platform. From the obtained data, all the sequences with mismatches outside of the variable peptide-encoding region were removed, and only the 12-, 15- or 18-bp-long peptide-encoding sequences were subjected to further analysis. The libraries of the selected cyclic peptides that enhance either SOD1(A4V)-GFP or Aβ42-GFP fluorescence were sequenced in a similar manner, with the only exception being that all sequences including stop codons were discarded from subsequent analysis.

[1] = Table 4, hexapeptides, after second round of sorting
[2] = after the second round of bacterial sorting for enhanced Aβ42-GFP fluorescence
[3] = after the second round of bacterial sorting for enhanced Aβ42-GFP fluorescence, relative to total peptide reads
[4] = pSICLOPPS-NuX1X2X3-X5 vectors after the second round of bacterial sorting for enhanced Aβ42-GFP fluorescence
[5] = after the second round of bacterial sorting
[6] = after the second round of bacterial sorting, relative to total peptide reads
[7] = high-throughput sequencing of isolated pSICLOPPS-NuX1X2X3-X5 vectors after the second round of bacterial sorting for enhanced Aβ42-GFP fluorescence, selected cyclo-TXXXR pentapeptides

| Substance | Reads/Total TXXXR reads (%) [5] [%] | Reads/Total pentapeptide reads (%) [5] [%] | Reads/Total peptide reads (%) [6] [%] | Number of reads [7] | also measured |
| --- | --- | --- | --- | --- | --- |
| TPAWSD [AβC6-69] | – | – | – | – | Reads/Total hexapeptide reads (%) (Table 4): 0.019%; Reads/Total peptide reads (%) (Table 4): 0.002%; Number of reads [1]: 86 |
| AβC5-473 (THVAR; cyclic pentapeptide) | – | – | – | – | Reads/Total TXXXR reads (%) [2]: 0.003%; Reads/Total pentapeptide reads (%) [2]: 0.001%; Reads/Total peptide reads (%) [3]: 0.001%; Number of reads [4]: 51 |
| TCSWFD [AβC6-27] | – | – | – | – | Reads/Total hexapeptide reads (%) (Table 4): 0.138%; Reads/Total peptide reads (%) (Table 4): 0.014%; Number of reads [1]: 623 |
| cyclo-TDQR (cyclic) [AβC4B-9] | – | – | – | – | Normalized read number (%): 2.09% |
| AβC5-258 (TTSCR; cyclic) | 0.016 | 0.007 | 0.007 | 301 | – |
| AβC5-20 (TTISR; cyclic) | 1.948 | 0.912 | 0.818 | 37,044 | – |
| AβC5-13 (TALDR; cyclic) | 3.301 | 1.547 | 1.386 | 62,792 | – |
| AβC5-362 (TTWDR; head-to-tail cyclic) | 0.006 | 0.003 | 0.002 | 107 | – |
| AβC5-12 (TTWAR; cyclic) | 3.466 | 1.624 | 1.455 | 65,929 | – |
| TLKWLN [AβC6-10] | – | – | – | – | Reads/Total hexapeptide reads (%) (Table 4): 2.434%; Reads/Total peptide reads (%) (Table 4): 0.243%; Number of reads [1]: 11,016 |
| AβC5-129 (TTLFR; cyclic) | 0.138 | 0.065 | 0.058 | 2,630 | – |
| AβC5-102 (TTYNR; cyclic) | 0.319 | 0.149 | 0.134 | 6,067 | – |
| AβC5-394 (TTVSR; head-to-tail cyclic) | – | – | – | – | Reads/Total TXXXR reads (%) [2]: 0.005%; Reads/Total pentapeptide reads (%) [2]: 0.002%; Reads/Total peptide reads (%) [3]: 0.002%; Number of reads [4]: 86 |
| cyclo-TRRR (cyclic) [AβC4-41] | – | – | – | – | Normalized read number (%): 0.2467% |
| AβC5-123 (TTVHR; cyclic) | 0.177 | 0.083 | 0.074 | 3,371 | – |
| AβC5-450 (TRDVR; cyclic pentapeptide) | – | – | – | – | Reads/Total TXXXR reads (%) [2]: 0.003%; Reads/Total pentapeptide reads (%) [2]: 0.001%; Reads/Total peptide reads (%) [3]: 0.001%; Number of reads [4]: 58 |
| AβC5-375 (TNLAR; head-to-tail cyclic) | 0.005 | 0.002 | 0.002 | 97 | – |
| AβC5-428 (TTCGR; cyclic pentapeptide) | – | – | – | – | Reads/Total TXXXR reads (%) [2]: 0.004%; Reads/Total pentapeptide reads (%) [2]: 0.002%; Reads/Total peptide reads (%) [3]: 0.002%; Number of reads [4]: 69 |
| AβC5-329 (TTVRR; head-to-tail cyclic) | 0.007 | 0.003 | 0.003 | 141 | – |
| AβC5-393 (TTGRR; head-to-tail cyclic) | – | – | – | – | Reads/Total TXXXR reads (%) [2]: 0.005%; Reads/Total pentapeptide reads (%) [2]: 0.002%; Reads/Total peptide reads (%) [3]: 0.002%; Number of reads [4]: 87 |
| AβC5-481 (TVFGR; cyclic pentapeptide) | – | – | – | – | Reads/Total TXXXR reads (%) [2]: 0.003%; Reads/Total pentapeptide reads (%) [2]: 0.001%; Reads/Total peptide reads (%) [3]: 0.001%; Number of reads [4]: 50 |

| Substance | Reads/Total TXXXR reads (%) [5] [%] | Reads/Total pentapeptide reads (%) [5] [%] | Reads/Total peptide reads (%) [6] [%] | Number of reads [7] | also measured |
| --- | --- | --- | --- | --- | --- |
| AβC5-126 (TTLLR; cyclic) | 0.159 | 0.074 | 0.067 | 3,016 | – |
| AβC5-117 (TTRCR; cyclic) | 0.223 | 0.104 | 0.094 | 4,237 | – |
| AβC5-45 (TTWVR; cyclic pentapeptide) | 1.094 | 0.512 | 0.459 | 20,798 | – |
| AβC5-399 (TAFAR; head-to-tail cyclic) | – | – | – | – | Reads/Total TXXXR reads (%) [2]: 0.004%; Reads/Total pentapeptide reads (%) [2]: 0.002%; Reads/Total peptide reads (%) [3]: 0.002%; Number of reads [4]: 82 |
| cyclo-TLGR (cyclic) [AβC4B-86] | – | – | – | – | Normalized read number (%): 0.1697% |
| AβC5-379 (TRLGR; head-to-tail cyclic) | 0.005 | 0.002 | 0.002 | 95 | – |
| TLSWYD [AβC6-47] | – | – | – | – | Reads/Total hexapeptide reads (%) (Table 4): 0.053%; Reads/Total peptide reads (%) (Table 4): 0.005%; Number of reads [1]: 239 |
| AβC5-139 (TTSPR; cyclic) | 0.100 | 0.047 | 0.042 | 1,904 | – |
| AβC5-22 (TVLWR; cyclic) | 1.883 | 0.882 | 0.791 | 35,820 | – |
| AβC5-253 (TTWFR; cyclic) | 0.017 | 0.008 | 0.007 | 327 | – |
| AβC5-27 (TTSAR; cyclic) | 1.482 | 0.694 | 0.622 | 28,188 | – |
| AβC5-299 (TTVGR; cyclic) | 0.011 | 0.005 | 0.004 | 200 | – |
| AβC5-53 (TTVWR; cyclic pentapeptide) | 0.982 | 0.460 | 0.412 | 18,669 | – |
| TPSWFD [AβC6-65] | – | – | – | – | Reads/Total hexapeptide reads (%) (Table 4): 0.023%; Reads/Total peptide reads (%) (Table 4): 0.002%; Number of reads [1]: 105 |
| TPVWLD [AβC6-80] | – | – | – | – | Reads/Total hexapeptide reads (%) (Table 4): 0.012%; Reads/Total peptide reads (%) (Table 4): 0.001%; Number of reads [1]: 55 |
| AβC5-242 (TTSTR; cyclic) | 0.020 | 0.009 | 0.008 | 376 | – |
| TLHWFE [AβC6-26] | – | – | – | – | Reads/Total hexapeptide reads (%) (Table 4): 0.143%; Reads/Total peptide reads (%) (Table 4): 0.014%; Number of reads [1]: 647 |
| AβC5-155 (TSLDR; cyclic) | 0.066 | 0.031 | 0.028 | 1,251 | – |
| AβC5-30 (TSTAR; cyclic) | 1.444 | 0.676 | 0.606 | 27,456 | – |
| AβC5-184 (TVLAR; cyclic) | 0.043 | 0.020 | 0.018 | 818 | – |
